Tested on: VchCAST TnsB transposase (Tn6677; assayed with TnsA-TnsC and TniQ-Cascade) (Vibrio cholerae)
Experiment: cell_activity
Details: T-RL; for binding signal: no IPTG

| Sequence | binding signal | other results |
| --- | --- | --- |
| ACATTTGTTGATACAACCATAAAATGATAATTACACCCATAAATTGATAATTATCACACCCATAAATTGATATTGCCTCTGGCGCTCTGTACCCCGCTCGGTCCTCCCGCGCATCGCGCACCGACAC (double strand) [Right end hyperactive 2698] | 1.59 fold vs WT |  |
| ACATTTGTTGATACAACCATAAAATGATAATTACACCCATAAATTGATAATTATCACACCCATAAATTGATATTGCCTCTGATCATAAATATATAAATTAATTATTAAATTAGTCAGGCACCGACAC (double strand) [Right end hyperactive 2692] | 2.24 fold vs WT |  |
| TGTTGATACAACCATCAAATGGTAATTACACCCATAAATTGATAATTATCACACCCA (double strand) [Right end ORF3a] |  | binding signal (log2 fold vs WT) (second replicate -0.05): -0.64 |
| ACATTTGTTGATACAACCATAAAATGATAATTACACCCATAAATTGATAATTATCACACCCATAAATTGATATTGCCTCTGATCAGGAATTGTGAGCGGATAACAATTTAGTCAGACGCACCGACAC (double strand) [Right end hyperactive 2693] | 2.05 fold vs WT |  |
| TTTTGTGTTGATGCAACCATAAAGTGATAACAACGAATCAATTAAAATCATAGGCTTAATCGAAAAACAACCATATCTTGATATCGCATAAAACAACCATAAGTTGATATTTTGGTGAAAAGGATATTCCAACCTTCATAGTTTAGTAAGAA (double strand) [Left end hyperactive 4671] | 1.55 fold vs WT |  |
| ACATTTGTTGATACAACCATAAAATGATAATTACACCCATAAATTGATAATTATCACACCCATAAATTGATATTGCCTCTGATCAAATTGTGAGCGGATAACAATTTAGTCAGACCAGCACCGACAC (double strand) [Right end hyperactive 2695] | 1.82 fold vs WT |  |
| ACATTTGTTGATACAACCATAAAATGATAATTATACCCATAAATTGATAATTATCACACCCATAAATTGATATTGCCTCTGATCATAGTCAGACCAACATTGCTACGACCCGTATTCGCACCGACAC (double strand) [Right end variant 985] |  | binding signal (log2 fold vs WT) (second replicate -1.2264): -1.42 |
| AATGTTGTTGATGCAACCATAAAGTGATATTTAATAATTATTTATAATCAGCAACTGAACCACAAAACAACCATATATTGATATCTCACAAAACAACCATAAGTTGATATTTTTGTGAATCGAGTATTTCAGCAAAACTACTGCAGTAAGAA (double strand) [Left end variant 3311] |  | binding signal (log2 fold vs WT) (second replicate -0.9350): -1.73 |
| TGTTGATACAACCATAAAAGGATTATTACACCCATTAATTGATAATTATCACACCCA (double strand) [Right end ORF2a] |  | binding signal (log2 fold vs WT) (second replicate -1.82): -2.22 |

Source: patent US20250163410
